Experimental data from patent US20260306676A1, “FLUORESCEIN-LABELED NERVE TARGETING PEPTIDE FORMULATIONS AND RELATED METHODS” (ALUME BIOSCIENCES, INC., priority 2023, published 2026).
Converted amounts (≈) assume the structure as drawn.

What was measured:
[1] = Influence of storage temperature on stability of ALM-488 solution (HPLC); assay type: physicochemical; conditions: 50 mg/mL in sterile water
Description: To evaluate whether the ALM-488, HCl salt can be supplied in the form of a concentrated frozen solution, 50 mg/mL solutions of the HCl salt were prepared in water and evaluated for storage stability at different temperatures. The solutions having pH of 1.87 were prepared in sterile water for injection, and these solutions were stored at different storage temperatures (−20° C., 5° C. and 40° C.) and were analyzed using the HPLC method of Table 3 at different time periods.

[2] = Drug product assay of lyophiles by HPLC; assay type: physicochemical; conditions: Pre-Lyo., starting peptide
Description: The content and purity of the ALM-488 peptide in the lyophilized product vials for Samples 10-1, 10-2 and 10-3 were evaluated using the HPLC method conditions of Table 3. […] The resulting solution was then transferred to a 200 mL volumetric flask. Each vial was rinsed well with water, and the rinses were transferred to the flask prior to volume make-up to 200 mL with water. The resulting solutions (~0.25 mg/mL of ALM488) were individually injected into the HPLC system and were analyzed as described above. The lyophilization process appeared to cause a small increase in the levels of some impurities.

[3] = Influence of pH on solubility and stability of ALM-488; assay type: physicochemical
Description: To understand pH-stability relationships, solutions of the ALM-488, HCl salt were prepared at ~1 mg/mL in 50 mM sodium citrate (pH 4-6) or sodium phosphate buffer (pH 7-8) solutions. […] All mixtures were filtered through a 0.45 μm PVDF syringe filter to remove undissolved solid, prior to storage. The filtered solution pH values were measured, and the samples were analyzed by HPLC using the HPLC method conditions of Table 3. Table lists the measured concentrations of ALM-488 (after filtration) as well as the measured solution pH values.
The solutions were then transferred into HPLC sample vials and were stored at 5° C., room temperature (22-23° C.) and 40° C.
Table 5 below summarizes the measured concentrations of intact ALM-488 peptide quantified relative to a standard solution, as well as the area % of the main peptide peaks as measured using the HPLC analysis method of Table 3. FIG. 9 is an overlay of representative chromatograms of the ALM-488 solutions at different solution pH values stored at 40° C. for 24 h. […] At higher pH values, the impurity at RRT ~0.96 appeared to grow during storage.

[4] = Effect of organic amine compounds on solubility of ALM-488 (pH titration)
Description: To assess formulations that could be used to prepare ~50 mg/vial samples of ALM-488, and samples having an ALM-488 concentration of ~50 mg/mL, formulations having different organic amine compounds were studied. Each of these samples included (i) ALM-488 hydrochloride, (ii) a suitable base appropriate for a freeze-dried formulation (to adjust solution pH to optimal 7-8, as described in Examples 4 and 5), and (iii) at least one organic amine compound functioning as a pH-adjusting agent, bulking agent and/or a tonicity-adjusting agent. […] 55-60 mg/mL solutions of ALM-488 (pH 1.8-1.9) were titrated by gradual addition of 750 mM arginine, 1 M Tris, or 1 M meglumine.

[5] = After 24 hours at 40° C., Citrate buffer 50 mM, pH 3.95
[6] = After 24 hours at 40° C., Citrate buffer 50 mM, pH 4.97
[7] = After 24 hours at 40° C., Citrate buffer 50 mM, pH 6.01
[8] = After 24 hours at 40° C., Phos. buffer 50 mM, pH 7.04
[9] = After 24 hours at 40° C., Phos. buffer 50 mM, pH 8.18
[10] = After 24 hours at 40° C., Water
[11] = Initial, Citrate buffer 50 mM, pH 3.95
[12] = Initial, Citrate buffer 50 mM, pH 4.97
[13] = Initial, Phos. buffer 50 mM, pH 7.04
[14] = Initial, Phos. buffer 50 mM, pH 8.18

CC(C)[C@H](NC(=O)[C@H](Cc1ccc(O)cc1)NCCCCC(=O)[C@H](Cc1ccc(O)cc1)NC(=O)[C@@H]1CCCN1C(=O)[C@H](CCC(=O)O)NC(=O)[C@H](CCC(=O)O)NC(=O)[C@H](Cc1c[nH]c2ccccc12)NC(=O)[C@@H]1CCCN1C(=O)[C@@H](NC(=O)[C@H](CCC(N)=O)NC(=O)c1ccc2c(c1)C(=O)OC21c2ccc(O)cc2Oc2cc(O)ccc21)C(C)C)C(=O)N[C@H](C(=O)N[C@@H](CCCCN)C(=O)N[C@@H](CCCCN)C(=O)N[C@@H](CO)C(=O)N[C@@H](CO)C(=O)NCC(=O)NCC(N)=O)C(C)C [ALM-488, Bevonescein]
ALM-488 main peak ([1]; 7 Days (5° C.)): 99.61 AREA %
impurity RRT~0.73 ([1]; 7 Days (5° C.)): 0.07 AREA %
impurity RRT~0.97 ([1]; 7 Days (5° C.)): 0.15 AREA %
impurity RRT~1.06 ([1]; 7 Days (5° C.)): 0.14 AREA %
impurity RRT~1.38 ([1]; 7 Days (5° C.)): 0.05 AREA %
ALM-488 main peak ([1]; 7 Days (40° C.)): 97.96 AREA %
impurity RRT~0.73 ([1]; 7 Days (40° C.)): 0.05 AREA %
impurity RRT~0.93 ([1]; 7 Days (40° C.)): 0.09 AREA %
impurity RRT~0.97 ([1]; 7 Days (40° C.)): 0.07 AREA %
impurity RRT~1.06 ([1]; 7 Days (40° C.)): 1.43 AREA %
impurity RRT~1.18 ([1]; 7 Days (40° C.)): 0.07 AREA %
impurity RRT~1.38 ([1]; 7 Days (40° C.)): 0.27 AREA %
ALM-488 main peak ([1]; 7 Days (−20° C.)): 99.56 AREA %
impurity RRT~0.73 ([1]; 7 Days (−20° C.)): 0.07 AREA %
impurity RRT~0.94 ([1]; 7 Days (−20° C.)): 0.03 AREA %
impurity RRT~0.97 ([1]; 7 Days (−20° C.)): 0.16 AREA %
impurity RRT~1.06 ([1]; 7 Days (−20° C.)): 0.15 AREA %
impurity RRT~1.38 ([1]; 7 Days (−20° C.)): 0.04 AREA %
ALM-488 main peak ([1]; Initial (RT)): 99.64 AREA %
impurity RRT~0.94 ([1]; Initial (RT)): 0.09 AREA %
impurity RRT~0.97 ([1]; Initial (RT)): 0.23 AREA %
impurity RRT~1.06 ([1]; Initial (RT)): 0.09 AREA %
ALM-488 main peak [2]: 99.69 Area %
impurity RRT~0.97 [2]: 0.14 Area %
impurity RRT~1.06 [2]: 0.11 Area %
impurity RRT~1.38 [2]: 0.02 Area %
solubility ([3]; 50 mm citrate buffer, aqueous buffer, citrate buffers (pH 4-6), read-out: solubility): < 1000 µg/mL
ALM488 concentration [3, 5]: 0.87 mg/mL
HPLC purity, area % [3, 5]: 99.5%
ALM488 concentration [3, 6]: 0.18 mg/mL
HPLC purity, area % [3, 6]: 99.8%
ALM488 concentration [3, 7]: 0.60 mg/mL
HPLC purity, area % [3, 7]: 99.8%
ALM488 concentration [3, 8]: 0.95 mg/mL
HPLC purity, area % [3, 8]: 99.8%
ALM488 concentration [3, 9]: 0.96 mg/mL
HPLC purity, area % [3, 9]: 99.5%
ALM488 concentration [3, 10]: 0.86 mg/mL
HPLC purity, area % [3, 10]: 99.3%
Measured solution pH ([3]; Citrate buffer 50 mM (pH 3.95)): 3.85
solubility ([3]; Citrate buffer 50 mM (pH 3.95), read-out: Measured concentration in filtered solution): 830 µg/mL (≈ 351 µM)
Measured solution pH ([3]; Citrate buffer 50 mM (pH 4.97)): 4.89
solubility ([3]; Citrate buffer 50 mM (pH 4.97), read-out: Measured concentration in filtered solution): 180 µg/mL (≈ 76.1 µM)
Measured solution pH ([3]; Citrate buffer 50 mM (pH 6.01)): 5.91
solubility ([3]; Citrate buffer 50 mM (pH 6.01), read-out: Measured concentration in filtered solution): 610 µg/mL (≈ 258 µM)
ALM488 concentration [3, 11]: 0.83 mg/mL
HPLC purity, area % [3, 11]: 99.3%
ALM488 concentration [3, 12]: 0.18 mg/mL
HPLC purity, area % [3, 12]: 99.8%
ALM488 concentration ([3]; Initial, Citrate buffer 50 mM, pH 6.01): 0.61 mg/mL
ALM488 concentration [3, 13]: 0.94 mg/mL
HPLC purity, area % [3, 13]: 99.7%
ALM488 concentration [3, 14]: 0.95 mg/mL
HPLC purity, area % [3, 14]: 99.7%
ALM488 concentration ([3]; Initial, Water): 0.86 mg/mL
HPLC purity, area % ([3]; Initial, Water): 99.8%
Measured solution pH ([3]; Phos. buffer 50 mM (pH 7.04)): 6.94
Measured solution pH ([3]; Phos. buffer 50 mM (pH 8.18)): 7.90
Measured solution pH ([3]; Water): 3.46
solubility ([3]; aqueous buffer, pH 5, citrate buffer, read-out: solubility near isoelectric pH): ~200 µg/mL (≈ 84.5 µM)
solution stability ([3]; neutral pH values): adequate solution stability
solubility ([3]; phosphate buffer 50 mm, Phos. buffer 50 mM (pH 7.04), read-out: Measured concentration in filtered solution): 940 µg/mL (≈ 397 µM)
solubility ([3]; phosphate buffer 50 mm, Phos. buffer 50 mM (pH 8.18), read-out: Measured concentration in filtered solution): 950 µg/mL (≈ 401 µM)
impurity at RRT ~1.4 ([3]; water (pH 3.46), 40° C. for 24 h): ~ 0.5 area %
dissolution ([3]; water (pH 3.5) and phosphate buffer (pH 7-8), ~1 mg/mL): rapid and complete
solubility ([3]; water, read-out: Measured concentration in filtered solution): 860 µg/mL (≈ 363 µM)
solubility [4]: > 50000 µg/mL
